{"source": "patent US8247531B2", "about": "“Mutant epidermal growth factor polypeptides, nucleic acids, and uses therefor” (priority 2006, dated 2012)", "key": {"[1]": {"molecular_target": "T1, EGFR on NR6 fibroblast cells (Homo sapiens, UniProt P00533)", "T1 construct": "expressed in transfected cells; host or cells: NR6 fibroblast cells", "assay": "Competition binding of soluble EGF to EGFR on NR6 fibroblast cells (flow cytometry, Alexa-488 labeled wt EGF)", "details": "competition with Alexa-488 labeled wt EGF, 6 hr at 4° C., read-out: Equilibrium dissociation constants", "method": "(§1) Fluorescence intensity of cell surface labeling was measured by flow cytometry.\nas §1\nThis mutant was tested using one of the binding assays described herein in which binding to EGFR expressed on cells is measured. […] Fluorescence intensity of cell surface labeling was measured by flow cytometry."}, "EGFR": {"molecular_target": "EGFR (Homo sapiens, UniProt P00533)", "details": "Mullenbach et al., Protein Eng 11:473-480, 1998; cited from earlier work"}}}
{"substance": "NSYSECPLSYDGYCLNDGVCRYIEALDRYACNCVVGYIGERCQYRDLKWWWLR (Mutant of human epidermal growth factor) [clone 107, second generation EGF mutant from the SOSM library]", "values": [{"measurement": "Kd", "setting": "[1]", "value": "0.13 ± 0.01", "unit": "nM"}]}
{"substance": "G12Q: previously described EGF containing a G12Q mutation (Mullenbach et al.) (NSDSECPLSHDQYCLHDGVCMYIEALDKYACNCVVGYIGERCQYRDLKWWELR)", "values": [{"measurement": "increase in affinity for EGFR over wt EGF (previous data)", "setting": "EGFR", "value": 5, "unit": "fold"}]}
